Values belong to the binder of their own block, whether it stands above or below them.
Columns and labels:
[1] = biological target: T1, HisSbp1FLAG (recombinant) (yeast, UniProt P10080 1-294); experiment: pull-down; FLAG pull-down of purified Sbp1FLAG with purified Sbp1GFP or Sbp1GFPΔRGG in the presence of RNase A; 450 nM proteins; blots with anti-GFP and anti-FLAG; details: both partners purified
T1 construct: Sbp1, yeast; also called full-length Sbp1FLAG; source: E. coli XL1-Blue, purified (Ni-NTA)
T1 sequence (looked up): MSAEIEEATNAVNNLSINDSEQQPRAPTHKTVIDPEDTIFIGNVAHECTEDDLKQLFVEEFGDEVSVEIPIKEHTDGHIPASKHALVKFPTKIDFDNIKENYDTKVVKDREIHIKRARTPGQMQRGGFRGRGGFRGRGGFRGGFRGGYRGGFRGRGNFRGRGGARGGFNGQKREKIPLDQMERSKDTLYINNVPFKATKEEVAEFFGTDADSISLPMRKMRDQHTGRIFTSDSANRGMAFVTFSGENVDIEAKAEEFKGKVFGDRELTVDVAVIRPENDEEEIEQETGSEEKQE

[2] = biological target: T2, GSTScd6 (recombinant) (yeast, UniProt P45978 1-349); experiment: pull-down; 450 nM purified proteins with glutathione sepharose beads, 2 h at 4°C, 50mM HEPES pH7, 100mM NaCl, 1mM DTT, 2mM MnCl2, 2mM MgCl2, 1% Triton-X100, 10% glycerol, 0.25mg/ml RNase A, 10mg/ml BSA; GST fusion as bait; anti-FLAG blot; for Figure 5e Scd6FLAG first incubated with Hmt1 with or without SAM; details: both partners purified
T2 construct: Scd6, yeast; also called full-length GSTScd6; source: E. coli BL21, purified (glutathione sepharose)
T2 sequence (looked up): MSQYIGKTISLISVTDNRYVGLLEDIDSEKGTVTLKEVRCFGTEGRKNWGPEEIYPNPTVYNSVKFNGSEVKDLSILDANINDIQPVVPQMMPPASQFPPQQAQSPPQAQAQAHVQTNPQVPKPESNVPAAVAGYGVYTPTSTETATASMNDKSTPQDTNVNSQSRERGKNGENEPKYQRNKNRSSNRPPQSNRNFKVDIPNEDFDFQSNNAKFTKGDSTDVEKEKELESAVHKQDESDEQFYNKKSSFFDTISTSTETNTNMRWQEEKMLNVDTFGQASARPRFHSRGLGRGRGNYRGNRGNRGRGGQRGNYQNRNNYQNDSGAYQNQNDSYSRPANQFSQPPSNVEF

[3] = biological target: the molecule itself; experiment: SEC; Sephacryl S-200 HR (45 ml, manual), 1 mg protein in 100 µl loaded, 20mM HEPES-KOH pH7.6, 100mM KCl, 10% glycerol; standards 200, 150, 66, 29 kDa

binding result [1]: binds
B1: HisSbp1GFP (recombinant) (natural protein, yeast, UniProt P10080 1-294, looked up)
chain: MSAEIEEATNAVNNLSINDSEQQPRAPTHKTVIDPEDTIFIGNVAHECTEDDLKQLFVEEFGDEVSVEIPIKEHTDGHIPASKHALVKFPTKIDFDNIKENYDTKVVKDREIHIKRARTPGQMQRGGFRGRGGFRGRGGFRGGFRGGYRGGFRGRGNFRGRGGARGGFNGQKREKIPLDQMERSKDTLYINNVPFKATKEEVAEFFGTDADSISLPMRKMRDQHTGRIFTSDSANRGMAFVTFSGENVDIEAKAEEFKGKVFGDRELTVDVAVIRPENDEEEIEQETGSEEKQE
notes: Sbp1, yeast, wild type; source: E. coli XL1-Blue, purified (Ni-NTA)

binding result [2]: binds
B2: in vitro methylated Scd6FLAG (natural protein, yeast, UniProt P45978 1-349, looked up)
chain: MSQYIGKTISLISVTDNRYVGLLEDIDSEKGTVTLKEVRCFGTEGRKNWGPEEIYPNPTVYNSVKFNGSEVKDLSILDANINDIQPVVPQMMPPASQFPPQQAQSPPQAQAQAHVQTNPQVPKPESNVPAAVAGYGVYTPTSTETATASMNDKSTPQDTNVNSQSRERGKNGENEPKYQRNKNRSSNRPPQSNRNFKVDIPNEDFDFQSNNAKFTKGDSTDVEKEKELESAVHKQDESDEQFYNKKSSFFDTISTSTETNTNMRWQEEKMLNVDTFGQASARPRFHSRGLGRGRGNYRGNRGNRGRGGQRGNYQNRNNYQNDSGAYQNQNDSYSRPANQFSQPPSNVEF
modifications: arginine methylation by Hmt1 in vitro (stained by mono-methylarginine specific antibody); sites not given
notes: Scd6, yeast; Same protein as m4 after methylation; source: E. coli BL21, purified, then methylated in vitro by incubating with Hmt1 and SAM

B3: HisScd6FLAG (recombinant) (natural protein, yeast, UniProt P45978 1-349, looked up)
chain: MSQYIGKTISLISVTDNRYVGLLEDIDSEKGTVTLKEVRCFGTEGRKNWGPEEIYPNPTVYNSVKFNGSEVKDLSILDANINDIQPVVPQMMPPASQFPPQQAQSPPQAQAQAHVQTNPQVPKPESNVPAAVAGYGVYTPTSTETATASMNDKSTPQDTNVNSQSRERGKNGENEPKYQRNKNRSSNRPPQSNRNFKVDIPNEDFDFQSNNAKFTKGDSTDVEKEKELESAVHKQDESDEQFYNKKSSFFDTISTSTETNTNMRWQEEKMLNVDTFGQASARPRFHSRGLGRGRGNYRGNRGNRGRGGQRGNYQNRNNYQNDSGAYQNQNDSYSRPANQFSQPPSNVEF
notes: Scd6, yeast; predicted molecular mass of the purified protein about 41.5 kDa; also called purified Scd6; source: E. coli BL21, purified (HisTrap HP, HiTrap Heparin HP)
stoichiometry N [3]: 2

From paper PMC6693564, “RGG-motif self-association regulates eIF4G-binding translation repressor protein Scd6” (RNA Biology, 2019)
